Measured values as given in the nanobody polyreactivity screen of Harvey et al. (2022).

assay: yeast display, Sf9 membrane polyspecificity reagent, FACS + sequencing; frameworks hold sequencing errors
How it was run: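 Genes from sorted yeast were amplified by colony PCR, read by MiSeq 2 × 250 sequencing and filtered on CDR length. These cells carried a synthetic nanobody library in Saccharomyces cerevisiae BJ5465 and were sorted by FACS into low and high (top ~1%) gates on anti-HA and streptavidin fluorescence. Polyreactivity is labelled according to the gate of origin.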

Sequence	polyreactivity (PSR sort gate)
QFQHVDSGGGLVQAGGSLRLSCADSGYTFPLYDMGRYRKAPGKVSELVADINIGGASTYYADSVKGRLTISRDNSKNSVYLQMNSLKPEDTAVYYCAKEYYDGYFPTFDYDYWGQGTQVTVSS	low polyreactivity
QFQIVESGGGLVQAGGSLRLSCAASGGTFVSYAMGWYRQAPGKERELVAAITYSGGSTYYADSVKGRFTISRDNAKNTVYLQMNSLKPEDTAVYYCAAAKFSYFSYCPRGKVKYEYWGQGTQVTVSS	low polyreactivity
QFQIVESGGGLVQAGGSLRLSCAASGSTFRSYAMGWYRQAPGKERELFARISYRTGSTYYADSVKRRFTISRDNAKNTVYLQMNSLKPEDTVVYYCAAGYIIQRSYFLYDSWGHGTQVTVSS	high polyreactivity
QFQLEESGGGLVQAGGSLRLSCAASARIFLNYAMGWFRQAPGKEMELVAAIRSASSTYYADSVKGRFTISRDNAKNTVYLQMNSLKAEDTAVYYCARLRYFLLNGSLRYGSSDRDYWGQGTQVTVSS	high polyreactivity
QFQLLESGGGLVQAGGSLRLSCAASGRTFSYNAMGWYRKAPGIERELVAAITGGTASTYYADSVKGRFTISRDNAKNPVYFQMNSLKPEETAVYYCNRASVFHYPWYYYWGQGTQVTVSS	high polyreactivity
QFQLLESGGGLVQAGGSLRLSCAASGSTFSLTTMGWYRPAPGKERELVAAINSGGSTYYADSVKGRFTISRDNAKNTVYLKMNSLKPEDTAVYYCAARTKYFGRFDYWGQGTQVTVSS	low polyreactivity
QFQLLESGGGLVQAGGSLRRSCAASGFTFDYYAMGWSRQAPGKERELVAVNNWSGGDTYYADSVKGRFTISRDNAKNTVYLQMNSLKPEDTAVYYCARVERMRYVGKYYPIRDYWGQGNQVTVSS	high polyreactivity
QFQLVDSGGGLVQAGGSLRLRSAASGRTFYPYVMAWYRQAPGKEREIVAAISYTGCSTYYADSVKGRFTISRDNAKNTVYLQMNSLKPEDTAVYYCNRAKYYSGGYRYHVDYWGQGTQVTVSS	high polyreactivity
QFQLVDSGGGLVQAGGSLRLSCAASGSTFGYYAMGWYRQATGKERELVAAISWRGGSTSYADSVKGRFTISRDNAKNTVYLQMNSLIPEDTAVYLCAAGGDINKYGRQYRYDYWGQGTQVTVSS	high polyreactivity
QFQLVEAGGGLVQAGGSLRLSCAASGSIIPNYNMGWYRQAPAKETELVAAMSISGGTTYYADSVKGRFTISRDNAKNTVYLQMNSLKPEETAVYYCAAVEYYWFLGYYYRYDYWGQGTQVTVSS	high polyreactivity
QFQLVESAVVLVQAGGSLRLSCAASGGIFGSYAMGWYRQAPGKEMEFVAAIRYGSGSQYYADSVKGRFTISRDNAKNTVYLQMNSLKPEDTAVYYCATEYWGVYGYGFIYDYWGQGTQVTVSS	low polyreactivity
QFQLVESCGGLVHAGGSLRLSCAASGSIFFSYAMGWYRQAPGKERELVAAISSGGSTYYADSVKGRFTISRDNAKNTVYLQMNSLKPEDTAVYYCAARGYRLVPVDFYYWGQGTQVTVSS	low polyreactivity
QFQLVESCGGLVPAGGSLRLSCAASGRILSDYAMGWYRQAPGKERELVAVISWDGTNTYYADSVKGRFPISRDNAKNTVYLQMNSLKPEDTAVYYCAATGTSYYSAYDYWGQGTQVTVSS	low polyreactivity
QFQLVESGGALVQAGGSLRLSCAASGSTFTGYTMGWYRQAPGKERELVAAINWSGGRTYYADSVKGRFTISRDNAKNTVYLQMNSLKPDDTAVYYCAVRSRSLGGYLGQGTQVTVSS	high polyreactivity
QFQLVESGGGIVQAGGSLRLSCYASGTFYKYAMGWNTQAPGKERELVAAISWRGGRTYADSVKGRFTISRDNAKNTVYLQMNSLIPEDTAVYYCYKRFYPEHYYWGQGTQVTVSS	high polyreactivity
QFQLVESGGGLDQAGGSLRLSCAASGSIFWYYAMGWYRQAPGKERELVAAISISGSTYYADSVKGRFTISRDNAKNTVYLQMNSLKPEDTAVYYCAARKFFWRSNYDYWGQGTQVTVSS	low polyreactivity
QFQLVESGGGLDQAGGSLRLSCAATGSTFTSYAMGWYIQAPGKERELVAAITSRGGTYYADSVKGRFTISRDNAKNTVYLQMNSLKPEDTAVYYCAARATYKKYPYVKWYDYWGQGTQVTVSS	high polyreactivity
QFQLVESGGGLVHAVGSLRLSCAASGRTGKNAMGWYRQAPGKERELVAAIRYNGGSTYYADSVKGRFTISRDNAKNSVYLQMNSLKPEDTAVYYCAAAFRRHNGSAFNYWGQGTQVTVSS	high polyreactivity
QFQLVESGGGLVQAGCSLRLSCAAYGSIFGGYAMGWYRQAPGKERELVAAISYRGASTYYADSVKGRFTISRDNAKNTVYLQMNILKPEDTAVYYCAVPARTRARVLYGYDYWGQGTQVTVSS	low polyreactivity
QFQLVESGGGLVQAGGILRLSCAASGSIFYHNAMGWSRQAPGKERELVAAITGSGGSTYYADSVKGRFTISRDNAKNTVYLQMNSLKPEDTAVYYCAADGYTKWWISWGYDYWGQGTQVTVSS	low polyreactivity
QFQLVESGGGLVQAGGRLRLSCAASGRIFRYSAMGWYRQAPGKERQLVASISSGGSTNYADSVKGRFTISRDNAKNTVYLQMNSLKQEDTAVYYCAARYWVSGFRAGYYWGQGTQVTVSS	high polyreactivity
QFQLVESGGGLVQAGGRLRLSCAASGSTFLPYAMGWYRQAPGKESELVAAIRGRGGRTYYADSVKGRFTISRANAKNTVYLQMNSLKPEDSAVYYCAADVKGLSWTYDSWGQGTQVTVSS	high polyreactivity

Sequence	polyreactivity (PSR sort gate)
QFQLVESGGGLVQAGGSHRLSCAASGSIFFINAMGWYRQAPGKERELVASISQSGVSTYYADSVKGRFTISRDNAKNTVYFEMNSLKPEDTAVYYCATGPVRRARYVWSYTYYYWGQGTQVTVSS	low polyreactivity
QFQLVESGGGLVQAGGSLRISCAATGLIYYVYAMGWYRQAPGKESELVAAIRSGGSTNNADSVKGRFTISRDNAKNTVYLQMNRLKPEDTAVYYCAVDTWYFLFQYGYYQEGDYWGQGTQVTVSS	low polyreactivity
QFQLVESGGGLVQAGGSLRLICAASGFIFWYNAMGWYRQSPGKEREFVAAISSGGSTTYADSVKGRFTISRDNALITVYLQMNSLKPEDTAVYYCAAGSYDYDYWGQGTQVTVSS	low polyreactivity
QFQLVESGGGLVQAGGSLRLSCAASGFIFSFYAMGWYRQAPGKERELVARINWTGGSTYYADSVKGRFTISRDNAKNSVYLQMNSLKPEDTAVYYCARPVRRIIGVTDEYWGQGTQVTVSS	low polyreactivity
QFQLVESGGGLVQAGGSLRLSCAASGFIIRVNAMAWYRQAPGTERQLVATITWNGGSTYYADSVKGRFTISRDNAKNTVYLQMNSLKPDDTAVYYCNRVRYRGYYPGPYSYSYDYWGQGTQVTVSS	low polyreactivity
QFQLVESGGGLVQAGGSLRLSCAASGFTFDNYVMGWYRQAPGKERELVAAISKSGTSTYYADSVKGRFTISRDNAKNTVYLQMNSLKPEDTAVYYCAAALPGYGDYYYWGQGTQVTVSS	high polyreactivity
QFQLVESGGGLVQAGGSLRLSCAASGFTFWYYAMGWYRQAPGKERELVARITSRGADTYADSVKGRFTISRDNAKNTVYLQMNSLKPEDTAVYYCAVDPGFSWYEQYDYWGQGTQVTVST	low polyreactivity
QFQLVESGGGLVQAGGSLRLSCAASGFTFYYYTMGWYRQAPGKERELVAAITWRGGSTNYADSVKGRFTISRDNAKNTVYLQMNSLKPEDTAVYYCAAVTYWFWPGMDYWGQGTQVTVSS	low polyreactivity
QFQLVESGGGLVQAGGSLRLSCAASGFTIYLYTMGWYRQAPGKERELVATISWSGASTYYADSVKGRFTISRDNAKNTVYLQMNSLKPEDTAVYYCATRYRYRYWGQGTQVTVSS	high polyreactivity
QFQLVESGGGLVQAGGSLRLSCAASGGTFNQYAMGWYRQAPGKEREFVASISRRGGSTYYADSVKGRFTISRDNAKNTVDLQMNSLKPEDTAVYYCAADAFFRLDYYYWGQGTQVTVSS	high polyreactivity
QFQLVESGGGLVQAGGSLRLSCAASGIIFGNNAMGWYRQAPGKERELVAAIRWSTGTTYYADSVKGRFTISRDNAKNTVYLQMNSLKPEDTAVYYCAARLRREYGYWGQGTQVTVSS	high polyreactivity
QFQLVESGGGLVQAGGSLRLSCAASGIIFSLYAMGWYIQAPGKERELVAAITTGGRTYYADSVKGRFTISRDNAKNTVYFQMNSLKPEDTAVYYCAAQGPWQGGTTLSTNRGYWGQGTQVTVSS	high polyreactivity
QFQLVESGGGLVQAGGSLRLSCAASGIILAYYAMGWYRKEPGKERELVSSINRSGGSTYYADSVKGRFTISRDNAKNTVYLQMISLKPEYTAVYYCAATNRGVGQRSYRYYYWGQGTQVSVSS	high polyreactivity
QFQLVESGGGLVQAGGSLRLSCAASGIMFGYYAMGWYRQAPGKERELVAALTRSGGSTYYADSVKGRFTISRDNAKNTVYLQLNSLKPEDTALYYCNGDDDGRVSSTIVEYWGQGTQVTVSS	low polyreactivity
QFQLVESGGGLVQAGGSLRLSCAASGITFFPYAMGWYRQAPGKERELVASISDGGGTNYADSVKGRFTISRDNAKNTVYLQMNSLKPEDTAVYYCATDASTYAYYGGDYWGQGTQVTVSS	low polyreactivity
QFQLVESGGGLVQAGGSLRLSCAASGITFYGNAKGWYRQAPGKVREFVAAITVDGGSTYAVSVKGRFTISRDNAKNTVYLQMNSLKPEDTAVYYCNKAYLRRSLKSGYPYDSWGQGTQVTVSS	low polyreactivity
QFQLVESGGGLVQAGGSLRLSCAASGLTIYSYSMGWYRQAPGKERELVAAITWRGGSTYYADSVKGRFTISRDHAKNTDYLQMNSVKPEDTALYYCAADPGPYGYYYWGQGNQVTVSS	low polyreactivity
QFQLVESGGGLVQAGGSLRLSCAASGRIFASIGMGWYRQAPGKEREFVAAINRSGGSTYYADSVKGRFTISRVNAKNSVYLQMNSLKPEDTAVYYCNKDYLYSYLWGWKVYSYDYWGQGTQVTVSS	low polyreactivity
QFQLVESGGGLVQAGGSLRLSCAASGRIFEDSMGWYRQAPGKERELVAAIRWSGGGTYYADSVKGRFTISRDNAKNTVYLQMNSLKPEDTAVYYCATPGTGSVELYGYWGQGTQVTVSS	low polyreactivity
QFQLVESGGGLVQAGGSLRLSCAASGRIFFIYAMGWYRQAPGKERELVAGINRTGGSTNYADSVKGRFTISRDNAKNTVYLQMNSLKPEDTAVYYCAADIYDGGFDYWGQGTQVTVSS	low polyreactivity
QFQLVESGGGLVQAGGSLRLSCAASGRIFFRNAMGWYIQAPGKETELVADNTNGGSTNYADSEKGRFTISRDNAKYTVYLQMNSLNPEDTAVYYCAADTLGVYDGDYWGQGTQVTVSS	low polyreactivity
